The text below walks through data of US20170052184A1.

Numbering of substitutions follows the chain as printed. Some results are limits rather than exact numbers.

T1: HCV Core1-169 (hepatitis C virus (HCV-1)), P26664
T1 chain: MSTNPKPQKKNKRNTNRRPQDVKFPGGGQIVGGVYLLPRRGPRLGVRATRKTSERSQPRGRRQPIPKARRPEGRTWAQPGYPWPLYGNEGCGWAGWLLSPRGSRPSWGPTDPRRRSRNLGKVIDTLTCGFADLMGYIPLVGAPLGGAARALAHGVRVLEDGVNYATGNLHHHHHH

T2: HCV Core1-169 (HCV-1), P26664
T2 chain: T1 chain

T3: HCV bt-141-161 (Peptide 2, HCVc 141-161) (Hepatitis C virus (numbering per HCV-1))
T3 sequence (peptide, biotin (carboxy-terminal per [p-0227]; N-terminal per [p-0050])): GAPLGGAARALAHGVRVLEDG

B1: HCV 208A-983 (antibody, V domains shown)
VH: QGQMQQSGAELVKPGASVKLSCKTSGFTFSSSYFSWLKQKPGQSLEWIAWIYAGTGNTIYNQKFTDKAQLTVDTASSTAFMQLSSLTIEDSAIYYCAISGTGFTYWGQGTLVTVSA
VL: DVLMTQTPLSLPVNLGDQASISCRSSQSLLHSNGNTYLEWFLQKPGQSPKLLIYNVSNRFSGVPDRFSGSGSGTDFTLKISRVEAEDLGVYYCFQGSHVPFTFGSGTKLAIKR
B2: HCV 208B-471 (antibody, V domains shown)
VH: QGQLQQSGPVLVKPGASEILYCKTSGFTFSSTYISWLKQKPGQSLEWIAWIYAGTGATNYNQKFTGKAQLTVDASSNTAYMHFSGLTPEDSAIYYCAISGAGVYWGQGTLVTVSA
VL: B1 VL with L3V, N14S, F41Y, K50N, T77A, E84G, F101L, S105A, A110E, I111L
B3: HCV 208B-174 (antibody, V domains shown)
VH: EVKLEESGGGLVQPGGSMKLSCVASGFSFSSYWMSWVRQSPEKGLDWVAEIRLRSDNYATHYAESVKGRFTISRDDSISRLYLQMNTLRAEDTGIYYCTWMTYWGQGTLVTVSA
VL: QNVLTQSPAIMSASPGEKVTMSCSASSSVTYMFWYQLKPESSPRLLIYDTSNLASGVPVRFSGSGSGTSYSLTISRMEAEDAATYYCQEWSSYPLTFGAGTKLDLKR
B4: HCV 208B-408 (antibody, V domains shown)
VH: EVKLVESGGGLVQPGGSLRLSCASSGFTFTDYYMSWVRQPPGKALEWLGFIRNKAYGYTTEFSASVNGRFTISRDDSQSVPYLQMNTLRAEDSATYYCARVLYYDYGGFAYWGQGTLVTVST
VL: DIQMTQSPASLSASVGETVTITCRASGNIHTYLAWYQQKQGKSPQLLVYNANTLADGVPSRFSGSGSGTQFSLKINSLQPDDFGSYYCQHFWSAPWTFGGGTQLEIKR
B5: HCV 208A-210 (antibody, V domains shown)
VH: QVQLQQSGPELVKPGASMRISCKASGYTFTSYYVHWIKQRPGQGLEWIGCIYPGDVNTDYNEKFKGKATLTADKSSSTAYMQVSTLTSEDSAIYFCVLYYYGSFAYWGQGTLVTVSA
VL: EIVLTQSPAITAASLGQNVTITCRASSSVSYMHWYRQKSGTSPQLWIYEISRRASGVPARFRASGSGTSYSLTISSMEAEDAAIYYCQQWNYPLTFGAGTKLEVKR
B6: HCV 208A-692 (antibody, V domains shown)
VH: B1 VH with V12A, F34I, Y52F, I59N, A75S, F80Y, I88T
VL: B1 VL with D1E, T7S, N14S, L30E, K44R, S48P, N55K, N58S
B7: HCV 208A-874 (antibody, V domains shown)
VH: QVQLQQPGAELVKPGASVKLSCKASGYTLSSYWMHWVKQRPGQGLEWIGEIHPSDSYTSYNQKFKDKATLTVDKSSSTAYMQLSSLTSEDSAVYYCARGGYYRYDEFAYWGQGTLVTVSA
VL: DIVMTQSHKFMSTSIGDRVSITCKASQNVSPAVAWYQQKPGQSPKLLIYSASSRYTGVPDRFTGSGSGTAFTFTISSVQAEDLAVYFCQQHFSTPWTFGGGTMLEIKR
B8: HCV 208A-422 (antibody, V domains shown)
VH: DVQLQESGPGLVNPSQSLSLTCSVTGYSITSGYYWIWIQQSPGNKLEWMGYIKYDGGNNYSPSLKNRISIARDTSKNQCFLKLNSVTIEDTATYYCTRGSDSFDYWGQGTTLTVSS
VL: DIVLTQSPASLAVSLGQRAIISCKASQSVSFAGTNLMHWYQQKPGQQPKLLIYRASNLETGVPTRFSGSGSRTDFTLNIHPVEEDDAATYYCQQSREYYTFGGGTKLEIKR
B9: HCV 208B-911 (antibody, V domains shown)
VH: QVHLQQPGAELVRPGVSVKLSCKASGYTFTTYSINWMKQRPGQGLEWIGNIYPSTSHTNYNQKFRDKATMTVDKSSSTAYMQLSSPTSEDSAVYYCTINAYSMDYWGQGTSVTVSS
VL: QIVLTQSPEIMSASPGEKVTITCSASSSVSFMYWFQQKPGTSPKLWIYITSNLASGVPTRFSGSGSGTSYSLTISRMEAEDAATYYCQQRSSFPYTFGGGTKLEMKR
B10: HCV 208B-826 (antibody, V domains shown)
VH: DVQLVESGGGLVQAGGSRKLSCAASGFPFSSFGMHWVRQAPEKGLEWVASISSRTSKIYYADNLKGRFTISRDNPKNTLFLQMTSLGSEDTAMYYCVRSVFGNSYWFFDVWGAGTTVTVSS
VL: DIVLTQSPATLSVTPGDRVSLSCRASQRIYNYLHWYQQKSHESPRLLTKYASQSISGIPSRFSGSGSGTDFILTINSVETEDFGMYFCQQSNSWPLTFGAGTKLELRR
B11: HCV 208B-822 (antibody, V domains shown)
VH: QVQLKQSGPGLVQPSQSLSITCTVSGFSLITYGVHWVRQSPGKGLEWLGVIWGGGSTGYNAAFVSRLNITKDNSKSQVFFKMNSLQPDDTAIYYCARNGGATVFDYWGQGTTLTVSS
VL: DIVMTQSPATLSVTPGDRVSLSCRASQTISDYLHWYQQKSHESPRLLIKYASQSISGIPSRFSGSGSGSHFTLSINSVEPEDVGVYYCQNGHSFPWTFGGGTKLEIKR
B12: HCV 208A-126 (antibody, V domains shown)
VH: QLQQSGPVLVKPGASVMISCKTSGYTFTENAMHWVKQSHGKSLEWIGGVNPNNGDTIFNQKFKGKATLTVDKSSNTAFTELRSLPSEESTVYYCVRRGLDFFDYWGQGTSVTVSS
VL: DIVLTQSPASLAVSLGQRATISCRASQSVSTSRYSYMHWYQQKPGQPPKLLIKYASNLESGVPARFSGSGSGTDFTLNIHPVAEEDTAAYYCQHSWEFPFTFGSGTKLEIKR

bovine serum albumin (BSA) (bovine), sequence (P02769 25-607 limits assumed): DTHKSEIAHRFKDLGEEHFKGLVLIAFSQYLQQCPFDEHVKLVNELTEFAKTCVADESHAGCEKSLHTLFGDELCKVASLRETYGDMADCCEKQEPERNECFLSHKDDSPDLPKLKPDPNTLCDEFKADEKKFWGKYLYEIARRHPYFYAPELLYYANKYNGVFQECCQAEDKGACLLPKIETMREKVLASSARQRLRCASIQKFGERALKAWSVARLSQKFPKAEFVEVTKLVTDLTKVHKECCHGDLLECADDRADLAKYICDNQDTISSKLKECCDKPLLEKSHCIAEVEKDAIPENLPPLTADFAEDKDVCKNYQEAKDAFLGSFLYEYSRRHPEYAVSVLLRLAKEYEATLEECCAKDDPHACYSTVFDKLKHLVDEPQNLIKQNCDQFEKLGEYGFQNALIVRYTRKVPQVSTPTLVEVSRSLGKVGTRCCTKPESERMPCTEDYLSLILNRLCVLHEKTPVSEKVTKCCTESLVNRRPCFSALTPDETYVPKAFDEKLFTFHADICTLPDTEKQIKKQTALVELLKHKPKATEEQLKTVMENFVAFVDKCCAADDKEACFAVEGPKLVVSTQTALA

The target in one experiment is T1, HCV Core1-169 (hepatitis C virus …). The experiment can be described thus: SPR sandwich, capture mAb C11-3. The following applies: remark: other sources report otherwise.
For B1, the expected percent binding was below 1%.

For the molecule B2, the expected percent binding is below 1%.

In the case of B3, the expected percent binding worked out at 1.6%.

For a further experiment the target is unchanged. Put plainly: SPR sandwich, capture mAb C11-14. As to conditions: remark: other sources report otherwise.
As for B1, the expected percent binding is below 1%.

B2 registered an expected percent binding below 1%.

Turning to B3, the expected percent binding came to 1.6%.

A further experiment deals with T2, HCV Core1-169 (HCV-1), P26664. Put plainly: EIA, core1-169 captured by mAb 14-153-229. As to conditions: remark: other sources report otherwise.
Consider B1, for which the OD (A492) was found to be 0.64 OD.

The molecule B2 showed an OD (A492) of 0.35 OD.

B3 returned an OD (A492) of 0.75 OD.

The next experiment addresses bovine serum albumin (BSA) (bovine) (UniProt P02769). Put plainly: EIA, BSA background.
Conditions: not given
As to B4, the OD (A492) came out at 0.08 OD.

In turn, B5 had an OD (A492) of 0.06 OD.

Molecule B6 showed an OD (A492) of 0.06 OD.

In turn, B7 had an OD (A492) of 0.06 OD.

Consider B8, for which the OD (A492) was found to be 1.1 OD.

In the case of B9, the OD (A492) turned out to be 1.17 OD.

Molecule B10 came in with an OD (A492) of 0.08 OD.

Consider B11, for which the OD (A492) came to 0.06 OD.

Take B12: the OD (A492) is 0.24 OD.

In a further experiment the target is bovine serum albumin (bovine) (UniProt P02769). The experiment can be described thus: EIA, BSA control.
bovine serum albumin (bovine), sequence (P02769 25-607 limits assumed): as above
Conditions: not given
As for B4, the Reactivity (OD 492 nm) is 0.06 OD units.

As for B5, the Reactivity (OD 492 nm) came out at 0.06 OD units.

The molecule B6 returned a Reactivity (OD 492 nm) of 0.06 OD units.

For B7, the Reactivity (OD 492 nm) came out at 0.05 OD units.

Regarding B8, the Reactivity (OD 492 nm) came out at 0.07 OD units.

Regarding B9, the Reactivity (OD 492 nm) came out at 0.1 OD units.

In the case of B10, the Reactivity (OD 492 nm) was 0.07 OD units.

In turn, B11 returned a Reactivity (OD 492 nm) of 0.05 OD units.

Take B12: the Reactivity (OD 492 nm) is 0.1 OD units.

Another experiment concerns the target T1, HCV Core1-169 (hepatitis C virus …). The experiment can be described thus: SPR sandwich, capture mAb C11-9. The following applies: remark: other sources report otherwise.
In turn, B1 displayed an expected percent binding below 1%.

Molecule B2 gave an expected percent binding below 1%.

Turning to B3, the expected percent binding is below 1%.

Another experiment addresses bovine serum albumin (BSA) (bovine) (UniProt P02769). The experiment can be described thus: EIA, BSA background.
Conditions: not given
The source holds these as a separate data set.
Consider B4, for which the OD (A492) amounted to 0.1 OD.

B5 returned an OD (A492) of 0.08 OD.

With B6, the OD (A492) amounted to 0.09 OD.

Molecule B7 yielded an OD (A492) of 0.1 OD.

On to B8, for which the OD (A492) amounted to 0.11 OD.

Regarding B9, the OD (A492) turned out to be 0.17 OD.

B10 registered an OD (A492) of 0.41 OD.

On to B11, for which the OD (A492) was found to be 0.11 OD.

On to B12, for which the OD (A492) is 0.07 OD.

A further experiment concerns the target HCV Core1-169 (HCV-1) (UniProt P26664). The experiment can be described thus: EIA, core1-169 captured by mAb 14-153-229.
Conditions: not given
On to B7, for which the OD (A492) is 0.18 OD.

B8 showed an OD (A492) of 0.18 OD.

Another experiment has as its target T3, HCV bt-141-161 (Peptide 2, HCVc 141-161) (Hepatitis C virus (numbering per HCV-1)). The experiment can be described thus: EIA, captured mAb + biotin peptide.
Conditions: not given
Consider B4, for which the Reactivity (OD 492 nm) is 0.2 OD units.

Regarding B6, the Reactivity (OD 492 nm) was determined as 0.38 OD units.

The target in another experiment is T2, HCV Core1-169 (HCV-1), P26664. Put plainly: EIA, core1-169 coated on plate. The following applies: remark: other sources report otherwise.
In turn, B1 yielded an OD (A492) of 0.12 OD.

On to B2, for which the OD (A492) stood at 0.24 OD.

Regarding B3, the OD (A492) is 0.15 OD.

A further experiment deals with HCV Core1-169 (HCV-1) (UniProt P26664). Put plainly: EIA, core1-169 coated on plate.
Conditions: not given
As for B7, the OD (A492) worked out at 0.45 OD.

The molecule B8 registered an OD (A492) of 1.68 OD.

A further experiment deals with T1, HCV Core1-169 (hepatitis C virus …). Put plainly: SPR sandwich, capture mAb C11-7. As to conditions: remark: other sources report otherwise.
In turn, B1 yielded an expected percent binding below 1%.

The molecule B2 gave an expected percent binding below 1%.

B3 showed an expected percent binding of 1.5%.
